The text below walks through data of PMC4820838.

This test concerns the target STAT3-NTD-YFP. Briefly: pair correlation of molecular brightness (pCOMB); pair correlation of brightness fluctuations along a 64-pixel confocal line scan from cytoplasm to nucleus of live HeLa cells; amplitude calibrated against free GFP, YFP or mCherry; cells stimulated with 10 nM oncostatin M for 15 min.

Sequence of STAT3-NTD-YFP (domain or fragment) (P40763 2-770): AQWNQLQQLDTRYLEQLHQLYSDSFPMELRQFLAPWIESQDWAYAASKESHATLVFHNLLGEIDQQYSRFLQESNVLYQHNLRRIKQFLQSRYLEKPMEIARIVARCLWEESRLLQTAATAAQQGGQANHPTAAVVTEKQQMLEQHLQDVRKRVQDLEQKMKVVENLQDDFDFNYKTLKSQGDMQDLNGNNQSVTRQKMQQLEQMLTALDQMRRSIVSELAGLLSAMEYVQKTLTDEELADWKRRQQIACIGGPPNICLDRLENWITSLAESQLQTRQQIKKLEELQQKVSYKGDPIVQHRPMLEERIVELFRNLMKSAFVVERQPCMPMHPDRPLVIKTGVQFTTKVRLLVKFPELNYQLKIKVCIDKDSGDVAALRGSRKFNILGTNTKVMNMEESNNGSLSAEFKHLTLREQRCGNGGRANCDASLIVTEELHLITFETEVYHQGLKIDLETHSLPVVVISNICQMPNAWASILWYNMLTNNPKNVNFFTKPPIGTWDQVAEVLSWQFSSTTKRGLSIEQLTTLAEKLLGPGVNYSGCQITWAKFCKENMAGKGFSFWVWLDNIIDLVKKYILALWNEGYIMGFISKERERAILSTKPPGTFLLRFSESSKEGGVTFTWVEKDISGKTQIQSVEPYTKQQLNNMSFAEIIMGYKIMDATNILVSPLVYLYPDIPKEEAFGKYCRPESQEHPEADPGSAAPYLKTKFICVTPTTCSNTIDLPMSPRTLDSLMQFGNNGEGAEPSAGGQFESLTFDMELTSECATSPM

Substance STAT3-NTD-YFP (domain or fragment) displayed a stoichiometry N of 2.
